B1: FBXO3 (parent)
chain: FIDTYSDVGRYIDHYAAIKKAWDD
B2: FEM1A (parent)
chain: PCCSSSPEEPLNGESYESCCPTSR
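Note: lentivirally expressed fusions sorted by FACS into six bins by GFP to DsRed ratio, PSI derived from sequencing read proportions per bin multiplied by bin number.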

Variants of: B1
Experiment: protein stability index of a GFP-peptide fusion (GPS, HEK-293T) (PSI 1-6); higher = more stable
Conditions: c terminus: a fixed tail appended
FIDTYSDVGRYIDHYAAIKWAWDD [K20W] gave a protein stability index of 2.86.
With FIDTYSDVGRYIDHYAAIKTAWDD [K20T] the protein stability index was 1.61.
For FIDTYSDVGRYIDHYAAIKVAWDD [K20V], the protein stability index was 1.44.
With FIDTYSDVGRYIDHYAAIKRAWDD [K20R] the protein stability index was 1.67.
FIDTYSDVGRYIDHYAAIKSAWDD [K20S] gave a protein stability index of 1.54.
FIDTYSDVGRYIDHYAAIKYAWDD [K20Y] gave a protein stability index of 2.08.
FIDTYSDVGRYIDHYAAIKKAWWD [D23W] gave a protein stability index of 3.21.
In the case of FIDTYSDVGRYIDHYAAIKKAWID [D23I], the protein stability index is reported as 3.3.
For FIDTYSDVGRYIDHYAAIKKAWLD [D23L], the protein stability index was 1.61.
In the case of FIDTYSDVGRYIDHYAAIKKAWRD [D23R], the protein stability index is reported as 1.72.
With FIDTYSDVGRYIDHYAAIKKAWED [D23E] the protein stability index was 2.31.
In the case of FIDTYSDVGRYIDHYAAIKKAWND [D23N], the protein stability index is reported as 2.29.
Variant FIDTYSDVGRYIDHYAAIKKAWTD [D23T] has a protein stability index of 1.97.
In the case of FIDTYSDVGRYIDHYAAIKKAWPD [D23P], the protein stability index is reported as 2.1.
FIDTYSDVGRYIDHYAAIKKAWMD [D23M] gave a protein stability index of 2.56.
Work on FIDTYSDVGRYIDHYAAIKKAWGD [D23G] yielded a protein stability index of 1.35.
FIDTYSDVGRYIDHYAAIKKAWSD [D23S] gave a protein stability index of 1.64.
For FIDTYSDVGRYIDHYAAIKKAWCD [D23C], the protein stability index was 2.82.
In the case of FIDTYSDVGRYIDHYAAIKKAWFD [D23F], the protein stability index is reported as 1.87.
For FIDTYSDVGRYIDHYAAIKKAWYD [D23Y], the protein stability index was 2.04.
Variant FIDTYSDVGRYIDHYAAIKKAWAD [D23A] has a protein stability index of 1.74.
With FIDTYSDVGRYIDHYAAIKKAWHD [D23H] the protein stability index was 1.81.
FIDTYSDVGRYIDHYAAIKKAWKD [D23K] gave a protein stability index of 1.7.
For FIDTYSDVGRYIDHYAAIKKAWQD [D23Q], the protein stability index was 1.44.
For FIDTYSDVGRYIDHYAAIKKAWVD [D23V], the protein stability index was 1.48.
Work on FIDTYSDVGRYIDHYAAIKKKWDD [A21K] yielded a protein stability index of 1.88.
With FIDTYSDVGRYIDHYAAIKKPWDD [A21P] the protein stability index was 1.97.
In the case of FIDTYSDVGRYIDHYAAIKKVWDD [A21V], the protein stability index is reported as 1.22.
In the case of FIDTYSDVGRYIDHYAAIKKLWDD [A21L], the protein stability index is reported as 1.72.
In the case of FIDTYSDVGRYIDHYAAIKKEWDD [A21E], the protein stability index is reported as 1.88.
FIDTYSDVGRYIDHYAAIKKGWDD [A21G] showed a protein stability index of 3.18.
Work on FIDTYSDVGRYIDHYAAIKKNWDD [A21N] yielded a protein stability index of 2.
With FIDTYSDVGRYIDHYAAIKKHWDD [A21H] the protein stability index was 1.61.
In the case of FIDTYSDVGRYIDHYAAIKKWWDD [A21W], the protein stability index is reported as 1.7.
In the case of FIDTYSDVGRYIDHYAAIKKTWDD [A21T], the protein stability index is reported as 2.23.
FIDTYSDVGRYIDHYAAIKKCWDD [A21C] gave a protein stability index of 1.82.
FIDTYSDVGRYIDHYAAIKKIWDD [A21I] gave a protein stability index of 2.48.
FIDTYSDVGRYIDHYAAIKKRWDD [A21R] showed a protein stability index of 1.96.
Variant FIDTYSDVGRYIDHYAAIKKSWDD [A21S] has a protein stability index of 2.12.
With FIDTYSDVGRYIDHYAAIKKFWDD [A21F] the protein stability index was 1.96.
Variant FIDTYSDVGRYIDHYAAIKKMWDD [A21M] has a protein stability index of 3.02.
FIDTYSDVGRYIDHYAAIKKQWDD [A21Q] gave a protein stability index of 1.82.
For FIDTYSDVGRYIDHYAAIKKYWDD [A21Y], the protein stability index was 1.85.
With FIDTYSDVGRYIDHYAAIKKDWDD [A21D] the protein stability index was 3.43.
FIDTYSDVGRYIDHYAAIKKADDD [W22D] gave a protein stability index of 2.05.
Variant FIDTYSDVGRYIDHYAAIKKAFDD [W22F] has a protein stability index of 1.39.
Variant FIDTYSDVGRYIDHYAAIKKAKDD [W22K] has a protein stability index of 3.
For FIDTYSDVGRYIDHYAAIKKACDD [W22C], the protein stability index was 1.95.
FIDTYSDVGRYIDHYAAIKKAIDD [W22I] gave a protein stability index of 2.1.
In the case of FIDTYSDVGRYIDHYAAIKKARDD [W22R], the protein stability index is reported as 1.86.
Work on FIDTYSDVGRYIDHYAAIKKAMDD [W22M] yielded a protein stability index of 1.64.
Work on FIDTYSDVGRYIDHYAAIKKAHDD [W22H] yielded a protein stability index of 2.02.
Work on FIDTYSDVGRYIDHYAAIKKAQDD [W22Q] yielded a protein stability index of 1.26.
Variant FIDTYSDVGRYIDHYAAIKKAVDD [W22V] has a protein stability index of 1.61.
FIDTYSDVGRYIDHYAAIKKATDD [W22T] showed a protein stability index of 1.95.
With FIDTYSDVGRYIDHYAAIKKAGDD [W22G] the protein stability index was 1.85.
For FIDTYSDVGRYIDHYAAIKKALDD [W22L], the protein stability index was 2.29.
With FIDTYSDVGRYIDHYAAIKKAYDD [W22Y] the protein stability index was 2.3.
FIDTYSDVGRYIDHYAAIKKAADD [W22A] showed a protein stability index of 2.05.
Work on FIDTYSDVGRYIDHYAAIKKAEDD [W22E] yielded a protein stability index of 2.1.
With FIDTYSDVGRYIDHYAAIKKANDD [W22N] the protein stability index was 1.68.
FIDTYSDVGRYIDHYAAIKKASDD [W22S] gave a protein stability index of 1.75.
With FIDTYSDVGRYIDHYAAIKKAPDD [W22P] the protein stability index was 1.69.
FIDTYSDVGRYIDHYAAIKKAWDR [D24R] gave a protein stability index of 1.99.
In the case of FIDTYSDVGRYIDHYAAIKKAWDP [D24P], the protein stability index is reported as 2.28.
In the case of FIDTYSDVGRYIDHYAAIKKAWDI [D24I], the protein stability index is reported as 2.86.
Variant FIDTYSDVGRYIDHYAAIKKAWDF [D24F] has a protein stability index of 1.67.
With FIDTYSDVGRYIDHYAAIKKAWDL [D24L] the protein stability index was 1.79.
With FIDTYSDVGRYIDHYAAIKKAWDS [D24S] the protein stability index was 1.44.
For FIDTYSDVGRYIDHYAAIKKAWDM [D24M], the protein stability index was 1.82.
Variant FIDTYSDVGRYIDHYAAIKKAWDH [D24H] has a protein stability index of 2.7.
With FIDTYSDVGRYIDHYAAIKKAWDN [D24N] the protein stability index was 1.54.
With FIDTYSDVGRYIDHYAAIKKAWDG [D24G] the protein stability index was 1.61.
Variant FIDTYSDVGRYIDHYAAIKKAWDE [D24E] has a protein stability index of 2.4.
FIDTYSDVGRYIDHYAAIKKAWDY [D24Y] showed a protein stability index of 2.19.
With FIDTYSDVGRYIDHYAAIKKAWDK [D24K] the protein stability index was 1.58.
FIDTYSDVGRYIDHYAAIKKAWDA [D24A] showed a protein stability index of 2.83.
With FIDTYSDVGRYIDHYAAIKKAWDC [D24C] the protein stability index was 1.32.
Work on FIDTYSDVGRYIDHYAAIKKAWDV [D24V] yielded a protein stability index of 2.6.
Work on FIDTYSDVGRYIDHYAAIKKAWDT [D24T] yielded a protein stability index of 2.51.
Variant FIDTYSDVGRYIDHYAAIKKAWDQ [D24Q] has a protein stability index of 2.39.
FIDTYSDVGRYIDHYAAIKKAWDW [D24W] showed a protein stability index of 2.07.

Variants of: B2
Experiment: as above
Conditions: c terminus: a fixed tail appended
For NCCSSSPEEPLNGESYESCCPTSR [P1N], the protein stability index was 3.96.
TCCSSSPEEPLNGESYESCCPTSR [P1T] showed a protein stability index of 3.6.
With ACCSSSPEEPLNGESYESCCPTSR [P1A] the protein stability index was 4.21.
In the case of ICCSSSPEEPLNGESYESCCPTSR [P1I], the protein stability index is reported as 3.97.
For LCCSSSPEEPLNGESYESCCPTSR [P1L], the protein stability index was 3.69.
For KCCSSSPEEPLNGESYESCCPTSR [P1K], the protein stability index was 2.47.
CCCSSSPEEPLNGESYESCCPTSR [P1C] gave a protein stability index of 1.83.
With FCCSSSPEEPLNGESYESCCPTSR [P1F] the protein stability index was 3.17.
For MCCSSSPEEPLNGESYESCCPTSR [P1M], the protein stability index was 3.67.
QCCSSSPEEPLNGESYESCCPTSR [P1Q] showed a protein stability index of 3.95.
WCCSSSPEEPLNGESYESCCPTSR [P1W] gave a protein stability index of 2.77.
Variant DCCSSSPEEPLNGESYESCCPTSR [P1D] has a protein stability index of 4.55.
